Laboratory results reported in publication PMC4155688, “Mapping the Putative G Protein-coupled Receptor (GPCR) Docking Site on GPCR Kinase 2” (The Journal of Biological Chemistry, 2014).
Values belong to the binder of their own block, whether it stands above or below them.

Biological target: T1, α2AAR-GFP^2 (UniProt P08913 1-465)
T1 construct: α2A-adrenergic receptor; also called α2A-adrenergic receptor; source: HEK293T, transfected, in living cells; not shown: GFP^2, C-terminal (from the name α2AAR-GFP^2), kept
T1 sequence (looked up): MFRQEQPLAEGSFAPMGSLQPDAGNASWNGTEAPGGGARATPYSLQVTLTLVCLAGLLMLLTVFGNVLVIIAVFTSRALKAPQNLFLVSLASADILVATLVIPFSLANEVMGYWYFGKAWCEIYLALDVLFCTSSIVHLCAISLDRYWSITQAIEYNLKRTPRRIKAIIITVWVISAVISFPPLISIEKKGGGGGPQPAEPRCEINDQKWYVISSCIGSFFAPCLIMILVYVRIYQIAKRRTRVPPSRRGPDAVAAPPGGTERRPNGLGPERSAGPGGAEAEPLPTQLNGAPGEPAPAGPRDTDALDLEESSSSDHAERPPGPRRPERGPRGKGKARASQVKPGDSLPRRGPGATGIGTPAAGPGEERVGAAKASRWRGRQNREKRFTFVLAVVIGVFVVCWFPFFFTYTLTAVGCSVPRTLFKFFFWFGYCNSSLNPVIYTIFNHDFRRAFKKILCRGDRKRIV
Assay: FRET or BRET; living HEK293T cells co-transfected with α2AAR-GFP^2 (acceptor) and RlucII-GRK2 (donor); in PBS at room temperature, with or without 100 μM norepinephrine (one-point and titration: 6 min; time course); coelenterazine 400A 5 μM; net or agonist-promoted BRET
Conditions: partners not purified

B1: RlucII-GRK2 A16V (enzyme, human, UniProt P25098 1-689, looked up)
chain: MADLEAVLADVSYLMVMEKSKATPAARASKKILLPEPSIRSVMQKYLEDRGEVTFEKIFSQKLGYLLFRDFCLNHLEEARPLVEFYEEIKKYEKLETEEERVARSREIFDSYIMKELLACSHPFSKSATEHVQGHLGKKQVPPDLFQPYIEEICQNLRGDVFQKFIESDKFTRFCQWKNVELNIHLTMNDFSVHRIIGRGGFGEVYGCRKADTGKMYAMKCLDKKRIKMKQGETLALNERIMLSLVSTGDCPFIVCMSYAFHTPDKLSFILDLMNGGDLHYHLSQHGVFSEADMRFYAAEIILGLEHMHNRFVVYRDLKPANILLDEHGHVRISDLGLACDFSKKKPHASVGTHGYMAPEVLQKGVAYDSSADWFSLGCMLFKLLRGHSPFRQHKTKDKHEIDRMTLTMAVELPDSFSPELRSLLEGLLQRDVNRRLGCLGRGAQEVKESPFFRSLDWQMVFLQKYPPPLIPPRGEVNAADAFDIGSFDEEDTKGIKLLDSDQELYRNFPLTISERWQQEVAETVFDTINAETDRLEARKKAKNKQLGHEEDYALGKDCIMHGYMSKMGNPFLTQWQRRYFYLFPNRLEWRGEGEAPQSLLTMEEIQSVEETQIKERKCLLLKIRGGKQFILQCDSDPELVQWKKELRDAYREAQQLVQRVPKMKNKPRSPVVELSKVPLVQRGSANGL
notes: GRK2, human; source: HEK293T, transfected, in living cells
- percent reduction of the agonist-promoted BRET relative to WT: ~55%

B2: RlucII-GRK2 L8E (enzyme, human, UniProt P25098 1-689, looked up)
chain: MADLEAVEADVSYLMAMEKSKATPAARASKKILLPEPSIRSVMQKYLEDRGEVTFEKIFSQKLGYLLFRDFCLNHLEEARPLVEFYEEIKKYEKLETEEERVARSREIFDSYIMKELLACSHPFSKSATEHVQGHLGKKQVPPDLFQPYIEEICQNLRGDVFQKFIESDKFTRFCQWKNVELNIHLTMNDFSVHRIIGRGGFGEVYGCRKADTGKMYAMKCLDKKRIKMKQGETLALNERIMLSLVSTGDCPFIVCMSYAFHTPDKLSFILDLMNGGDLHYHLSQHGVFSEADMRFYAAEIILGLEHMHNRFVVYRDLKPANILLDEHGHVRISDLGLACDFSKKKPHASVGTHGYMAPEVLQKGVAYDSSADWFSLGCMLFKLLRGHSPFRQHKTKDKHEIDRMTLTMAVELPDSFSPELRSLLEGLLQRDVNRRLGCLGRGAQEVKESPFFRSLDWQMVFLQKYPPPLIPPRGEVNAADAFDIGSFDEEDTKGIKLLDSDQELYRNFPLTISERWQQEVAETVFDTINAETDRLEARKKAKNKQLGHEEDYALGKDCIMHGYMSKMGNPFLTQWQRRYFYLFPNRLEWRGEGEAPQSLLTMEEIQSVEETQIKERKCLLLKIRGGKQFILQCDSDPELVQWKKELRDAYREAQQLVQRVPKMKNKPRSPVVELSKVPLVQRGSANGL
notes: as for B1
- percent reduction of the agonist-promoted BRET relative to WT: ~55%

B5: RlucII-GRK2 R587Q (enzyme, human, UniProt P25098 1-689, looked up)
chain: MADLEAVLADVSYLMAMEKSKATPAARASKKILLPEPSIRSVMQKYLEDRGEVTFEKIFSQKLGYLLFRDFCLNHLEEARPLVEFYEEIKKYEKLETEEERVARSREIFDSYIMKELLACSHPFSKSATEHVQGHLGKKQVPPDLFQPYIEEICQNLRGDVFQKFIESDKFTRFCQWKNVELNIHLTMNDFSVHRIIGRGGFGEVYGCRKADTGKMYAMKCLDKKRIKMKQGETLALNERIMLSLVSTGDCPFIVCMSYAFHTPDKLSFILDLMNGGDLHYHLSQHGVFSEADMRFYAAEIILGLEHMHNRFVVYRDLKPANILLDEHGHVRISDLGLACDFSKKKPHASVGTHGYMAPEVLQKGVAYDSSADWFSLGCMLFKLLRGHSPFRQHKTKDKHEIDRMTLTMAVELPDSFSPELRSLLEGLLQRDVNRRLGCLGRGAQEVKESPFFRSLDWQMVFLQKYPPPLIPPRGEVNAADAFDIGSFDEEDTKGIKLLDSDQELYRNFPLTISERWQQEVAETVFDTINAETDRLEARKKAKNKQLGHEEDYALGKDCIMHGYMSKMGNPFLTQWQRRYFYLFPNQLEWRGEGEAPQSLLTMEEIQSVEETQIKERKCLLLKIRGGKQFILQCDSDPELVQWKKELRDAYREAQQLVQRVPKMKNKPRSPVVELSKVPLVQRGSANGL
notes: as for B1
- percent reduction of the NOR-promoted BRET signal relative to WT: 90%

B6: RlucII-GRK2 M17A (enzyme, human, UniProt P25098 1-689, looked up)
chain: MADLEAVLADVSYLMAAEKSKATPAARASKKILLPEPSIRSVMQKYLEDRGEVTFEKIFSQKLGYLLFRDFCLNHLEEARPLVEFYEEIKKYEKLETEEERVARSREIFDSYIMKELLACSHPFSKSATEHVQGHLGKKQVPPDLFQPYIEEICQNLRGDVFQKFIESDKFTRFCQWKNVELNIHLTMNDFSVHRIIGRGGFGEVYGCRKADTGKMYAMKCLDKKRIKMKQGETLALNERIMLSLVSTGDCPFIVCMSYAFHTPDKLSFILDLMNGGDLHYHLSQHGVFSEADMRFYAAEIILGLEHMHNRFVVYRDLKPANILLDEHGHVRISDLGLACDFSKKKPHASVGTHGYMAPEVLQKGVAYDSSADWFSLGCMLFKLLRGHSPFRQHKTKDKHEIDRMTLTMAVELPDSFSPELRSLLEGLLQRDVNRRLGCLGRGAQEVKESPFFRSLDWQMVFLQKYPPPLIPPRGEVNAADAFDIGSFDEEDTKGIKLLDSDQELYRNFPLTISERWQQEVAETVFDTINAETDRLEARKKAKNKQLGHEEDYALGKDCIMHGYMSKMGNPFLTQWQRRYFYLFPNRLEWRGEGEAPQSLLTMEEIQSVEETQIKERKCLLLKIRGGKQFILQCDSDPELVQWKKELRDAYREAQQLVQRVPKMKNKPRSPVVELSKVPLVQRGSANGL
notes: as for B1
- percent reduction of the agonist-promoted BRET relative to WT: ~55%

B7: RlucII-GRK2 D317A (enzyme, human, UniProt P25098 1-689, looked up)
chain: MADLEAVLADVSYLMAMEKSKATPAARASKKILLPEPSIRSVMQKYLEDRGEVTFEKIFSQKLGYLLFRDFCLNHLEEARPLVEFYEEIKKYEKLETEEERVARSREIFDSYIMKELLACSHPFSKSATEHVQGHLGKKQVPPDLFQPYIEEICQNLRGDVFQKFIESDKFTRFCQWKNVELNIHLTMNDFSVHRIIGRGGFGEVYGCRKADTGKMYAMKCLDKKRIKMKQGETLALNERIMLSLVSTGDCPFIVCMSYAFHTPDKLSFILDLMNGGDLHYHLSQHGVFSEADMRFYAAEIILGLEHMHNRFVVYRALKPANILLDEHGHVRISDLGLACDFSKKKPHASVGTHGYMAPEVLQKGVAYDSSADWFSLGCMLFKLLRGHSPFRQHKTKDKHEIDRMTLTMAVELPDSFSPELRSLLEGLLQRDVNRRLGCLGRGAQEVKESPFFRSLDWQMVFLQKYPPPLIPPRGEVNAADAFDIGSFDEEDTKGIKLLDSDQELYRNFPLTISERWQQEVAETVFDTINAETDRLEARKKAKNKQLGHEEDYALGKDCIMHGYMSKMGNPFLTQWQRRYFYLFPNRLEWRGEGEAPQSLLTMEEIQSVEETQIKERKCLLLKIRGGKQFILQCDSDPELVQWKKELRDAYREAQQLVQRVPKMKNKPRSPVVELSKVPLVQRGSANGL
notes: GRK2, human; catalytically inert mutant; source: HEK293T, transfected, in living cells
- fold recruitment (agonist-promoted BRET) relative to WT: 2 fold

The remaining lines, values ahead:

- percent reduction of the agonist-promoted BRET relative to WT: ~55%
B3: RlucII-GRK2 V7E (enzyme, human, UniProt P25098 1-689, looked up)
chain: MADLEAELADVSYLMAMEKSKATPAARASKKILLPEPSIRSVMQKYLEDRGEVTFEKIFSQKLGYLLFRDFCLNHLEEARPLVEFYEEIKKYEKLETEEERVARSREIFDSYIMKELLACSHPFSKSATEHVQGHLGKKQVPPDLFQPYIEEICQNLRGDVFQKFIESDKFTRFCQWKNVELNIHLTMNDFSVHRIIGRGGFGEVYGCRKADTGKMYAMKCLDKKRIKMKQGETLALNERIMLSLVSTGDCPFIVCMSYAFHTPDKLSFILDLMNGGDLHYHLSQHGVFSEADMRFYAAEIILGLEHMHNRFVVYRDLKPANILLDEHGHVRISDLGLACDFSKKKPHASVGTHGYMAPEVLQKGVAYDSSADWFSLGCMLFKLLRGHSPFRQHKTKDKHEIDRMTLTMAVELPDSFSPELRSLLEGLLQRDVNRRLGCLGRGAQEVKESPFFRSLDWQMVFLQKYPPPLIPPRGEVNAADAFDIGSFDEEDTKGIKLLDSDQELYRNFPLTISERWQQEVAETVFDTINAETDRLEARKKAKNKQLGHEEDYALGKDCIMHGYMSKMGNPFLTQWQRRYFYLFPNRLEWRGEGEAPQSLLTMEEIQSVEETQIKERKCLLLKIRGGKQFILQCDSDPELVQWKKELRDAYREAQQLVQRVPKMKNKPRSPVVELSKVPLVQRGSANGL
notes: as for B1

- percent reduction of the agonist-promoted BRET relative to WT: ~55%
B4: RlucII-GRK2 V7A (enzyme, human, UniProt P25098 1-689, looked up)
chain: MADLEAALADVSYLMAMEKSKATPAARASKKILLPEPSIRSVMQKYLEDRGEVTFEKIFSQKLGYLLFRDFCLNHLEEARPLVEFYEEIKKYEKLETEEERVARSREIFDSYIMKELLACSHPFSKSATEHVQGHLGKKQVPPDLFQPYIEEICQNLRGDVFQKFIESDKFTRFCQWKNVELNIHLTMNDFSVHRIIGRGGFGEVYGCRKADTGKMYAMKCLDKKRIKMKQGETLALNERIMLSLVSTGDCPFIVCMSYAFHTPDKLSFILDLMNGGDLHYHLSQHGVFSEADMRFYAAEIILGLEHMHNRFVVYRDLKPANILLDEHGHVRISDLGLACDFSKKKPHASVGTHGYMAPEVLQKGVAYDSSADWFSLGCMLFKLLRGHSPFRQHKTKDKHEIDRMTLTMAVELPDSFSPELRSLLEGLLQRDVNRRLGCLGRGAQEVKESPFFRSLDWQMVFLQKYPPPLIPPRGEVNAADAFDIGSFDEEDTKGIKLLDSDQELYRNFPLTISERWQQEVAETVFDTINAETDRLEARKKAKNKQLGHEEDYALGKDCIMHGYMSKMGNPFLTQWQRRYFYLFPNRLEWRGEGEAPQSLLTMEEIQSVEETQIKERKCLLLKIRGGKQFILQCDSDPELVQWKKELRDAYREAQQLVQRVPKMKNKPRSPVVELSKVPLVQRGSANGL
notes: as for B1
